Reference: patent publication US20190040138A1 (AKESO BIOPHARMA, published 2019)
Where a chain is given by its changes, count along the chain named. Values belong to the binder of their own block, whether it stands above or below them.

Legend:
[1] = target: T1, PD-1-mIgGFc fusion protein; assay: ELISA on coated PD-1-mFc
T1 construct: also called PD-1-mFc; PD-1-mIgGFc antigen
Procedure: (§1) An ELISA plate was coated with PD-1-mFc antigen in a concentration of 0.5 μg/ml (50 μl per well) by incubation at 4° C. overnight.
(§2) The absorbance of solution in each well was measured with the microplate reader under a wavelength of 450 nm.

[2] = target: T1, PD-1-mIgGFc fusion protein; assay: ELISA on coated PD-1-mFc; antibody 1 µg/ml diluted 1:9; replicate 1
Procedure: as §1
(§3) After the ELISA plate was washed with the PBST buffer for three times and gently patted to dryness again, TMB as a developer in 50 μl per well was added for incubation at room temperature for 5 to 10 minutes.
as §2

[3] = target: T1, PD-1-mIgGFc fusion protein; assay: ELISA on coated PD-1-mFc; antibody 1 µg/ml diluted 1:9; replicate 2
Procedure: as §1
(§4) The ELISA plate coated with the PD-1-mFc antigen was blocked with 1% BSA in the PBS buffer at 37° C. for 2 hours, and washed with 1×PBST buffer containing 1% Tween-20 for three times, with gently patting to dryness.
as §2

[4] = target: T1, PD-1-mIgGFc fusion protein; assay: ELISA on coated PD-1-mFc; antibody 1 µg/ml diluted 1:243; replicate 1
Procedure: as §1, §3, §2

[5] = target: T1, PD-1-mIgGFc fusion protein; assay: competitive ELISA on coated PD-1-mIgGFc; competitor PDL1-mIgG2aFc 0.3 µg/ml; antibody 1.5 µg/ml diluted 1:729; replicate 1
Procedure: (§5) A 96-well ELISA plate was coated with PD-1-mIgGFc antigen in a concentration of 0.5 μg/ml (50 μl per well) by incubation at 4° C. overnight.
(§6) The 18A10 H1L1, 18A10 H2L2 and 18A10 H3L3 antibodies each were diluted from 3 μg/ml in series by 1:3, with 7 gradient antibody solutions obtained for each antibody. The 7 gradient antibody solutions for each antibody and the blank PBS control (50 μl per well) were respectively added into the blocked 96-well ELISA plate for incubation at room temperature for 10 minutes.
(§7) After the 96-well ELISA plate was washed with the PBST buffer for three times and gently patted to dryness, goat anti-mouse IgG-HRP (H+L) as a secondary antibody in 1:5000 dilution (50 μl per well) was added for incubation at 37° C. for 1 hour.

[6] = target: T1, PD-1-mIgGFc fusion protein; assay: competitive ELISA on coated PD-1-mIgGFc; competitor PDL1-mIgG2aFc 0.3 µg/ml; antibody 1.5 µg/ml diluted 1:27; replicate 1
Procedure: as §5, §6, §7

[7] = target: T1, PD-1-mIgGFc fusion protein; assay: ELISA on coated PD-1-mFc; antibody 1 µg/ml diluted 1:243; replicate 2
Procedure: as §1, §4, §2

[8] = target: T1, PD-1-mIgGFc fusion protein; assay: ELISA on coated PD-1-mFc; antibody 1 µg/ml diluted 1:27; replicate 1
Procedure: as §1, §3, §2

[9] = target: T1, PD-1-mIgGFc fusion protein; assay: competitive ELISA on coated PD-1-mIgGFc; competitor PDL1-mIgG2aFc 0.3 µg/ml; antibody 1.5 µg/ml diluted 1:3; replicate 2
Procedure: as §5, §6, §7

[10] = target: T1, PD-1-mIgGFc fusion protein; assay: competitive ELISA on coated PD-1-mIgGFc; competitor PDL1-mIgG2aFc 0.3 µg/ml; antibody 1.5 µg/ml diluted 1:81; replicate 2
Procedure: as §5, §6, §2

[11] = target: T1, PD-1-mIgGFc fusion protein; assay: ELISA on coated PD-1-mFc; antibody 1 µg/ml diluted 1:27; replicate 2
Procedure: as §1, §3, §2

[12] = target: T1, PD-1-mIgGFc fusion protein; assay: competitive ELISA on coated PD-1-mIgGFc; competitor PDL1-mIgG2aFc 0.3 µg/ml; antibody 1.5 µg/ml diluted 1:3; replicate 1
Procedure: as §5, §6, §7

[13] = target: T1, PD-1-mIgGFc fusion protein; assay: competitive ELISA on coated PD-1-mIgGFc; competitor PDL1-mIgG2aFc
Procedure: as §5, §6

[14] = target: T1, PD-1-mIgGFc fusion protein; assay: competitive ELISA on coated PD-1-mIgGFc; competitor PDL1-mIgG2aFc 0.3 µg/ml; antibody 1.5 µg/ml; replicate 1
Procedure: as §5, §6, §2

[15] = target: T1, PD-1-mIgGFc fusion protein; assay: competitive ELISA on coated PD-1-mIgGFc; competitor PDL1-mIgG2aFc 0.3 µg/ml; antibody 1.5 µg/ml; replicate 2
Procedure: as §5, §6, §2

[16] = target: T2, PD-1 antigen stably expressed on the surface of BB007 cells (UniProt Q15116 25-288, limits assumed); assay: flow cytometry on BB007 cells; antibody 10 nM
T2 construct: whole, on cells; also called target protein PD-1 on the surface of the BB007 cell
Procedure: (§8) The binding efficiencies of H1L1, H2L2 and H3L3 antibodies to PD-1 antigen stably expressed on the surface of cells (named as BB007 cells) were determined by flow cytometry. The BB007 cells were obtained by routine trypsin digestion, and then washed with PBS buffer once, followed by dividing into several tubes, with 2×10⁵ cells per tube. After dilution into concentrations of 20 nM, 10 nM, 5 nM, 1 nM, 0.1 nM and 0 nM with the PBS buffer containing 1% BSA for each of the H1L1, H2L2 and H3L3 antibodies, individual antibodies in a volume of 100 μl were added into individual tubes and incubated on ice for 1 hour. After the mixture was washed with the PBS buffer once, 100 μl FITC-Goat-Anti-Human IgG (in 1:500 dilution) was added for each tube and incubated on ice for 1 hour, followed by addition of 300 μl the PBS buffer for detecting fluorescence signal with a FITC channel on the flow cytometer.

[17] = target: T1, PD-1-mIgGFc fusion protein; assay: competitive ELISA on coated PD-1-mIgGFc; competitor PDL1-mIgG2aFc 0.3 µg/ml; antibody 1.5 µg/ml diluted 1:27; replicate 2
Procedure: as §5, §6, §2

[18] = target: T1, PD-1-mIgGFc fusion protein; assay: competitive ELISA on coated PD-1-mIgGFc; competitor PDL1-mIgG2aFc 0.3 µg/ml; antibody 1.5 µg/ml diluted 1:243; replicate 1
Procedure: as §5, §6, §7

[19] = target: T1, PD-1-mIgGFc fusion protein; assay: ELISA on coated PD-1-mFc; antibody 1 µg/ml diluted 1:3; replicate 1
Procedure: as §1, §3, §2

[20] = target: T2, PD-1 antigen stably expressed on the …; assay: flow cytometry on BB007 cells; antibody 5 nM
Procedure: as §8

T2 sequence (Q15116 25-288 limits assumed): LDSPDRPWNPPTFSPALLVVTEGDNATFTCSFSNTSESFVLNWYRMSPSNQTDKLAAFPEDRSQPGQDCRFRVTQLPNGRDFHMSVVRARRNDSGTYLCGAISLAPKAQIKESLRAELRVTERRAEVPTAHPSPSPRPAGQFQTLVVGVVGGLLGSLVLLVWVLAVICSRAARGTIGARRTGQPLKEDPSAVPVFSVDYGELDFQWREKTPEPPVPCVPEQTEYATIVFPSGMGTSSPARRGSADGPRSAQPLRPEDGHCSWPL
T1 sequence (chain, as listed by the source limits assumed): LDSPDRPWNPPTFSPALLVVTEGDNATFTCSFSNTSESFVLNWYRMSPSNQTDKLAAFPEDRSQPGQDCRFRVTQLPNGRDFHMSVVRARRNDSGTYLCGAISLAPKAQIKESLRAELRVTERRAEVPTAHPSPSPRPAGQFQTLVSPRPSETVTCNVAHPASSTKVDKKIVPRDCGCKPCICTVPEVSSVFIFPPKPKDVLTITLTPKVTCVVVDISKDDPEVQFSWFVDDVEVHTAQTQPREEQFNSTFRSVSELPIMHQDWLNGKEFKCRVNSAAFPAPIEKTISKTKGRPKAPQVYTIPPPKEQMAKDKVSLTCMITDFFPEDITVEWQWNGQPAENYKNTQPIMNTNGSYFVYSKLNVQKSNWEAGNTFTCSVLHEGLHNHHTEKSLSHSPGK

EC50 [1]: 111 pM
absorbance at 450 nm [2]: 2.18
absorbance at 450 nm [3]: 1.98
absorbance at 450 nm [4]: 0.545
absorbance at 450 nm (competition) [5]: 1.2
absorbance at 450 nm (competition) [6]: 0.951
absorbance at 450 nm [7]: 0.475
absorbance at 450 nm [8]: 1.78
absorbance at 450 nm (competition) [9]: 0.097
absorbance at 450 nm (competition) [10]: 1.1
absorbance at 450 nm [11]: 1.63
absorbance at 450 nm (competition) [12]: 0.097
EC50 [13]: 838 pM
absorbance at 450 nm (competition) [14]: 0.11
absorbance at 450 nm (competition) [15]: 0.102
fluorescence intensity [16]: 349
absorbance at 450 nm (competition) [17]: 0.903
absorbance at 450 nm (competition) [18]: 1.16
absorbance at 450 nm [19]: 2.13
fluorescence intensity [20]: 321
B1: humanized antibody 18A10 H2L2 (antibody, V domains shown)
VH: EVQLVQSGGGLVQPGGSLKLSCAASGFTFSSYGMSWVRQAPGKGLDWVATISGGGRDTYYPDSVKGRFTISRDNSKNNLYLQMNSLRAEDTALYYCARQKGEAWFAYWGQGTLVTVSS
VL: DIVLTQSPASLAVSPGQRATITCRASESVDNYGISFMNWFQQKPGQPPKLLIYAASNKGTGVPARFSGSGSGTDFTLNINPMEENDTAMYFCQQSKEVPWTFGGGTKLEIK
notes: also called H2L2 antibody

EC50 [1]: 156 pM
absorbance at 450 nm [2]: 1.96
absorbance at 450 nm [3]: 1.98
absorbance at 450 nm [4]: 0.45
absorbance at 450 nm (competition) [5]: 1.35
absorbance at 450 nm (competition) [6]: 1.06
absorbance at 450 nm [7]: 0.431
absorbance at 450 nm [8]: 1.62
absorbance at 450 nm (competition) [9]: 0.109
absorbance at 450 nm (competition) [10]: 1.14
absorbance at 450 nm [11]: 1.65
absorbance at 450 nm (competition) [12]: 0.123
EC50 [13]: 992 pM
absorbance at 450 nm (competition) [14]: 0.11
absorbance at 450 nm (competition) [15]: 0.107
fluorescence intensity [16]: 316
absorbance at 450 nm (competition) [17]: 1.04
absorbance at 450 nm (competition) [18]: 1.26
absorbance at 450 nm [19]: 2.35
fluorescence intensity [20]: 252
B2: humanized antibody 18A10 H1L1 (antibody, V domains shown)
VH: B1 VH with A40T, G42E
VL: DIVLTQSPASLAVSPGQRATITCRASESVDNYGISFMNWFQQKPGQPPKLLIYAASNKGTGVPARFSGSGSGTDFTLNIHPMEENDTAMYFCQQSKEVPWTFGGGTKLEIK
notes: also called H1L1 antibody

EC50 [1]: 144 pM
absorbance at 450 nm [2]: 1.95
absorbance at 450 nm [3]: 2.06
absorbance at 450 nm [4]: 0.432
absorbance at 450 nm (competition) [5]: 1.28
absorbance at 450 nm (competition) [6]: 1
absorbance at 450 nm [7]: 0.377
absorbance at 450 nm [8]: 1.58
absorbance at 450 nm (competition) [9]: 0.108
absorbance at 450 nm (competition) [10]: 1.19
absorbance at 450 nm [11]: 1.5
absorbance at 450 nm (competition) [12]: 0.103
EC50 [13]: 1190 pM
absorbance at 450 nm (competition) [14]: 0.101
absorbance at 450 nm (competition) [15]: 0.102
fluorescence intensity [16]: 386
absorbance at 450 nm (competition) [17]: 0.986
absorbance at 450 nm (competition) [18]: 1.2
absorbance at 450 nm [19]: 2.29
fluorescence intensity [20]: 343
B3: humanized antibody 18A10 H3L3 (antibody, V domains shown)
VH: B1 VH with N78T, L93V
VL: DIVLTQSPASLAVSPGQRATITCRASESVDNYGISFMNWYQQKPGQPPKLLIYAASNKATGVPARFSGSGSGTDFTLNINPMEANDTAVYFCQQSKEVPWTFGGGTKLEIK
notes: also called H3L3 antibody
